Measurements published in article PMC3883592.

Target: mEPCR on mouse brain microvascular endothelial cells (bEND3) (mouse (endogenous in bEND3)) (UniProt Q64695)
Experiment: radioligand binding

Sequence of mEPCR on mouse brain microvascular endothelial cells (bEND3) (mouse (endogenous in bEND3)) (Q64695 18-242): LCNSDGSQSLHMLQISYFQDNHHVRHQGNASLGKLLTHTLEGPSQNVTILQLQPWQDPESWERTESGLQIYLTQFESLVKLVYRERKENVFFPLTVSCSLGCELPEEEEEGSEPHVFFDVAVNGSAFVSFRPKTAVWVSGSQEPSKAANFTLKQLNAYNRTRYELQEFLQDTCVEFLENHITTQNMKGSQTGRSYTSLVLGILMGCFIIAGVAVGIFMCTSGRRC

Substance | Kd | fold increase of binding with 1 mM Mg2+ over Ca2+ alone | amount bound as percent of human APC at 50 nM
Recombinant activated human protein C (Xigris) (enzyme) | 0.023 µM | 10 fold | –
Mouse APC (enzyme) | – | 3 fold | 30%
